Results: PMC10542519

How the values were obtained:
[1] = target: PhiPA3 Chimallin C (ChmC; gp61), full-length (Pseudomonas phage PhiPA3); test: SEC-MALS
[2] = target: PhiPA3 ChmC-ΔC (residues 204-251 removed) (Pseudomonas phage PhiPA3); test: SEC-MALS

| Substance | stoichiometry N [1] | stoichiometry N [2] |
| --- | --- | --- |
| PhiPA3 Chimallin C (ChmC; gp61), full-length (natural protein) | 4 | – |
| PhiPA3 ChmC-ΔC (residues 204-251 removed) (domain or fragment) | – | 4 |
